Experimental data taken from article PMC4775417 (Structure (London, England : 1993), 2016).

Target: Met1-linked tri-ubiquitin chain (UniProt P0CG48 1-76; P0CG48 1-76; P0CG48 1-76)
Assay: SPR

Sequence of Met1-linked tri-ubiquitin chain (P0CG48 1-228, one chain of several): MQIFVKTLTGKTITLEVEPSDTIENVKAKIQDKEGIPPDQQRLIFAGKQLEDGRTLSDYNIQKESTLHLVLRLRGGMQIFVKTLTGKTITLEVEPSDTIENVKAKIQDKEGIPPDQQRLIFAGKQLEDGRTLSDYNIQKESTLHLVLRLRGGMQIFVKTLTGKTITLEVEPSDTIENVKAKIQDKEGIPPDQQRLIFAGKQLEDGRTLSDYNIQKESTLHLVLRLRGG

B1: His-tagged AIRAPL tUIM (residues 188-240), wild type (domain or fragment, mouse, UniProt Q91X58 188-240, looked up)
chain: PVIALQNGLSEDEALQRALELSLAEAKPQVLSSQEEDDLALAQALSASEAEYQ
binding result: binds
